Measured values: ChEMBL document CHEMBL4482315, “In vivo imaging of sulfotransferases” (2013)
Where “and” joins values, the source holds several entries; their conditions need not be identical. Equal values may be shown once.

Columns and labels:
[1] = substrate: Oc1ccc2sccc2c1; experiment: (§1) Substrate activity at SULT1A1 (unknown origin) expressed in baculovirus infected Sf9 cells assessed as substrate Km incubated for 15 mins using [35S-]PAPS as sulfate donor by TLC analysis; set-up: species or system Homo sapiens
[2] = substrate: Cc1nc2cc(O)ccc2s1; experiment: as §1; set-up: species or system Homo sapiens
[3] = substrate: CNc1ccc(-c2nc3cc(O)ccc3s2)cc1; experiment: as §1; set-up: species or system Homo sapiens
[4] = substrate: CN(C)c1ccc(-c2nc3cc(O)ccc3s2)cc1; experiment: as §1; set-up: species or system Homo sapiens
[5] = substrate: Oc1ccc2nc(-c3ccccc3)sc2c1; experiment: as §1; set-up: species or system Homo sapiens
[6] = substrate: Oc1ccc2occc2c1; experiment: as §1; set-up: species or system Homo sapiens
[7] = substrate: Oc1ccc2ncoc2c1; experiment: as §1; set-up: species or system Homo sapiens
[8] = substrate: Oc1ccc2ccsc2c1; experiment: as §1; set-up: species or system Homo sapiens
[9] = substrate: Cc1nc2ccc(O)cc2s1; experiment: as §1; set-up: species or system Homo sapiens
[10] = substrate: Oc1ccc2ncsc2c1; experiment: as §1; set-up: species or system Homo sapiens
[11] = substrate: Oc1ccc2ccoc2c1; experiment: as §1; set-up: species or system Homo sapiens
[12] = substrate: Oc1ccc2cc[nH]c2c1; experiment: as §1; set-up: species or system Homo sapiens
[13] = substrate: Oc1ccc2[nH]ccc2c1; experiment: as §1; set-up: species or system Homo sapiens
[14] = substrate: Oc1ccc2[nH]cnc2c1; experiment: as §1; set-up: species or system Homo sapiens
not read = substrate: Oc1ccc2ccccc2c1; experiment: not read
[15] = substrate: Oc1ccc2sccc2c1; experiment: (§2) Substrate activity at SULT1A3 (unknown origin) expressed in baculovirus infected Sf9 cells assessed as substrate Km incubated for 15 mins using [35S-]PAPS as sulfate donor by TLC analysis; set-up: species or system Homo sapiens
[16] = substrate: Cc1nc2cc(O)ccc2s1; experiment: as §2; set-up: species or system Homo sapiens
[17] = substrate: Oc1ccc2occc2c1; experiment: as §2; set-up: species or system Homo sapiens
[18] = substrate: Oc1ccc2ncoc2c1; experiment: as §2; set-up: species or system Homo sapiens
[19] = substrate: Oc1ccc2ccsc2c1; experiment: as §2; set-up: species or system Homo sapiens
[20] = substrate: Oc1ccc2ncsc2c1; experiment: as §2; set-up: species or system Homo sapiens
[21] = substrate: Oc1ccc2ccoc2c1; experiment: as §2; set-up: species or system Homo sapiens
[22] = substrate: Oc1ccc2cc[nH]c2c1; experiment: as §2; set-up: species or system Homo sapiens
[23] = substrate: Oc1ccc2[nH]ccc2c1; experiment: as §2; set-up: species or system Homo sapiens
[24] = substrate: CC(=O)Nc1ccc(-c2nc3ccc(O)cc3s2)cc1; experiment: (§3) Substrate activity at SULT1E1 (unknown origin) expressed in baculovirus infected Sf9 cells assessed as substrate Km incubated for 15 mins using [35S-]PAPS as sulfate donor by TLC analysis; set-up: species or system Homo sapiens
[25] = substrate: Oc1ccc2sccc2c1; experiment: as §3; set-up: species or system Homo sapiens
[26] = substrate: Oc1ccc2nc(-c3ccc(I)cc3)sc2c1; experiment: as §3; set-up: species or system Homo sapiens
[27] = substrate: Cc1nc2cc(O)ccc2s1; experiment: as §3; set-up: species or system Homo sapiens
[28] = substrate: CNc1ccc(-c2nc3ccc(O)cc3s2)cc1; experiment: as §3; set-up: species or system Homo sapiens
[29] = substrate: CN(C)c1ccc(-c2nc3ccc(O)cc3s2)cc1; experiment: as §3; set-up: species or system Homo sapiens
[30] = substrate: CNc1ccc(-c2nc3cc(O)ccc3s2)cc1; experiment: as §3; set-up: species or system Homo sapiens
[31] = substrate: CN(C)c1ccc(-c2nc3cc(O)ccc3s2)cc1; experiment: as §3; set-up: species or system Homo sapiens
[32] = substrate: Oc1ccc2nc(-c3ccccc3)sc2c1; experiment: as §3; set-up: species or system Homo sapiens
[33] = substrate: CS(=O)(=O)c1ccc(-c2nc3ccc(O)cc3s2)cc1; experiment: as §3; set-up: species or system Homo sapiens
[34] = substrate: Oc1ccc2occc2c1; experiment: as §3; set-up: species or system Homo sapiens
[35] = substrate: N#Cc1ccc(-c2nc3ccc(O)cc3s2)cc1; experiment: as §3; set-up: species or system Homo sapiens
[36] = substrate: Oc1ccc2ncoc2c1; experiment: as §3; set-up: species or system Homo sapiens
[37] = substrate: Nc1ccc(-c2nc3ccc(O)cc3s2)cc1; experiment: as §3; set-up: species or system Homo sapiens
[38] = substrate: COc1ccc(-c2nc3ccc(O)cc3s2)cc1; experiment: as §3; set-up: species or system Homo sapiens
[39] = substrate: Oc1ccc2ccsc2c1; experiment: as §3; set-up: species or system Homo sapiens
[40] = substrate: Cc1nc2ccc(O)cc2s1; experiment: as §3; set-up: species or system Homo sapiens
[41] = substrate: Oc1ccc2ncsc2c1; experiment: as §3; set-up: species or system Homo sapiens
[42] = substrate: Oc1ccc2ccoc2c1; experiment: as §3; set-up: species or system Homo sapiens
[43] = substrate: Oc1ccc2nc(-c3ccc(F)cc3)sc2c1; experiment: as §3; set-up: species or system Homo sapiens
[44] = substrate: O=[N+]([O-])c1ccc(-c2nc3ccc(O)cc3s2)cc1; experiment: as §3; set-up: species or system Homo sapiens

B1: Sulfotransferase 1A1 (Homo sapiens) (protein)
chain: MELIQDTSRPPLEYVKGVPLIKYFAEALGPLQSFQARPDDLLISTYPKSGTTWVSQILDMIYQGGDLEKCHRAPIFMRVPFLEFKAPGIPSGMETLKDTPAPRLLKTHLPLALLPQTLLDQKVKVVYVARNAKDVAVSYYHFYHMAKVHPEPGTWDSFLEKFMVGEVSYGSWYQHVQEWWELSRTHPVLYLFYEDMKENPKREIQKILEFVGRSLPEETVDFVVQHTSFKEMKKNPMTNYTTVPQEFMDHSISPFMRKGMAGDWKTTFTVAQNERFDADYAEKMAGCSLSFRSEL
[1]
  Km: 0.14 µM
  Vmax: 0.0112 µmol/min/mg
[2]
  Km: 5.9 µM
  Vmax: 0.0193 µmol/min/mg
[3]
  Km: 0.012 µM
  Vmax: 0.0039 µmol/min/mg
[4]
  Km: 0.04 µM
  Vmax: 0.011 µmol/min/mg
[5]
  Km: 0.045 µM
  Vmax: 0.00525 µmol/min/mg
[6]
  Km: 0.62 µM
  Vmax: 0.00987 µmol/min/mg
[7]
  Km: 5.5 µM
  Vmax: 0.0132 µmol/min/mg
[8]
  Km: 0.08 µM
  Vmax: 0.00978 µmol/min/mg
[9]
  Km: 6.2 µM
  Vmax: 0.0103 µmol/min/mg
[10]
  Km: 2.08 µM
  Vmax: 0.0103 µmol/min/mg
[11]
  Km: 0.18 µM
  Vmax: 0.0265 µmol/min/mg
[12]
  Km: 0.23 µM
  Vmax: 0.0203 µmol/min/mg
[13]
  Km: 6.62 µM
  Vmax: 0.0128 µmol/min/mg
[14]
  Km: 19.3 µM
  Vmax: 0.0085 µmol/min/mg
Not read
  Km: 0.17 µM
  Vmax: 0.0146 µmol/min/mg

B2: Sulfotransferase 2A1 (Homo sapiens) (protein)
chain: MSDDFLWFEGIAFPTMGFRSETLRKVRDEFVIRDEDVIILTYPKSGTNWLAEILCLMHSKGDAKWIQSVPIWERSPWVESEIGYTALSETESPRLFSSHLPIQLFPKSFFSSKAKVIYLMRNPRDVLVSGYFFWKNMKFIKKPKSWEEYFEWFCQGTVLYGSWFDHIHGWMPMREEKNFLLLSYEELKQDTGRTIEKICQFLGKTLEPEELNLILKNSSFQSMKENKMSNYSLLSVDYVVDKAQLLRKGVSGDWKNHFTVAQAEDFDKLFQEKMADLPRELFPWE
Not read
  Km: 254 µM
  Vmax: 0.00019 µmol/min/mg

B3: Sulfotransferase 1E1 (Homo sapiens) (protein)
chain: MNSELDYYEKFEEVHGILMYKDFVKYWDNVEAFQARPDDLVIATYPKSGTTWVSEIVYMIYKEGDVEKCKEDVIFNRIPFLECRKENLMNGVKQLDEMNSPRIVKTHLPPELLPASFWEKDCKIIYLCRNAKDVAVSFYYFFLMVAGHPNPGSFPEFVEKFMQGQVPYGSWYKHVKSWWEKGKSPRVLFLFYEDLKEDIRKEVIKLIHFLERKPSEELVDRIIHHTSFQEMKNNPSTNYTTLPDEIMNQKLSPFMRKGITGDWKNHFTVALNEKFDKHYEQQMKESTLKFRTEI
Not read
  Vmax: 0.00339 µmol/min/mg and 0.00486 µmol/min/mg
[15]
  Km: 251 µM
  Vmax: 0.00612 µmol/min/mg
[16]
  Km: 1040 µM
  Vmax: 0.0101 µmol/min/mg
[17]
  Km: 385 µM
  Vmax: 0.00834 µmol/min/mg
[18]
  Km: 1070 µM
  Vmax: 0.0115 µmol/min/mg
[19]
  Km: 157 µM
  Vmax: 0.00982 µmol/min/mg
[20]
  Km: 280 µM
  Vmax: 0.00809 µmol/min/mg
[21]
  Km: 377 µM
  Vmax: 0.00888 µmol/min/mg
[22]
  Km: 2710 µM
  Vmax: 0.0195 µmol/min/mg
[23]
  Km: 575 µM
  Vmax: 0.00366 µmol/min/mg
[24]
  Km: 2.36 µM
  Vmax: 0.00204 µmol/min/mg
[25]
  Km: 38 µM
  Vmax: 0.00291 µmol/min/mg
[26]
  Km: 0.52 µM
  Vmax: 0.00295 µmol/min/mg
[27]
  Km: 15.9 µM
  Vmax: 0.0047 µmol/min/mg
[28]
  Km: 1.6 µM
  Vmax: 0.0021 µmol/min/mg
[29]
  Km: 1.33 µM
  Vmax: 0.00149 µmol/min/mg
[30]
  Km: 1.31 µM
  Vmax: 0.00182 µmol/min/mg
[31]
  Km: 0.39 µM
  Vmax: 0.00098 µmol/min/mg
[32]
  Km: 0.99 µM
  Vmax: 0.00318 µmol/min/mg
[33]
  Km: 1.32 µM
  Vmax: 0.00357 µmol/min/mg
[34]
  Km: 177 µM
  Vmax: 0.00179 µmol/min/mg
[35]
  Km: 0.25 µM
  Vmax: 0.00433 µmol/min/mg
[36]
  Km: 525 µM
  Vmax: 0.0033 µmol/min/mg
[37]
  Km: 1.63 µM
  Vmax: 0.00278 µmol/min/mg
[38]
  Km: 0.9 µM
  Vmax: 0.00197 µmol/min/mg
[39]
  Km: 11.5 µM
  Vmax: 0.00287 µmol/min/mg
[40]
  Km: 6.96 µM
  Vmax: 0.00329 µmol/min/mg
[41]
  Km: 61.3 µM
  Vmax: 0.0023 µmol/min/mg
[42]
  Km: 90.9 µM
  Vmax: 0.00272 µmol/min/mg
[43]
  Km: 0.92 µM
  Vmax: 0.00416 µmol/min/mg
[44]
  Km: 0.12 µM
  Vmax: 0.00343 µmol/min/mg
